pKd: −log10 of the molar value.
Target: human glypican-3 (GPC3), cell-associated (human) (UniProt P51654)
Test: flow cytometry on cells expressing native GPC3, MFI titration, Scatchard plot (Prism)

YP7 (antibody)
pKd: 9.52

From patent publication US20150147330A1
